Patent publication US20140336130A1 (PHIGENIX, INC., priority 2011, published 2014)

Key:
Assay type in all cases: cell-based, human
[1] = system: LNCaP; experiment: MTT cell viability assay, LNCaP; conditions: DEFB1 (hBD-1) induced with 10 μM PonA, 24-72 h
Protocol: Reactions were performed three times in triplicate.
DU145, PC3 and LNCaP cells […] were transfected with 0.5 μg of the PAX2 siRNA pool or control siRNA pool using Codebreaker transfection reagent according to the manufacturer's protocol (Promega). Next, cell suspensions were diluted and seeded onto a 96-well plate at 1-5×10^3 cells per well and allowed to grow for 2-, 4- or 6 days. After culture, cell viability was determined by measuring the conversion of 3-[4,5-dimethylthiazol-2yl]-2,5 diphenyl tetrazolium bromide, MTT (Promega), to a colored formazan product. Absorbance was read at 540 nm on a scanning multiwell spectrophotometer.
(§1) To examine the effects of hBD-1 on cell growth, metabolic 3-[4,5-dimethylthiazol-2yl]-2,5-diphenyl tetrazolium bromide (MTT) assay was performed. DU145, LNCaP, PC3 and PC3/AR+ cells co-transfected with pvgRXR plasmid and pIND/hBD-1 construct or control pvgRXR plasmid were seeded onto a 96-well plate at 1-5×10^3 cells per well. Twenty-four hours after seeding, fresh growth medium was added containing 10 μM Pon A daily to induce hBD-1 expression for 24, 48 and 72 h after which the MTT assay was performed according to the manufacturer's instructions (Promega). Reactions were performed three times in triplicate.
MTT cytotoxicity assay was performed as described in Example 1.

[2] = system: PC3/AR+; experiment: MTT cell viability assay, PC3/AR+; conditions: PC3 with ectopic AR expression; hBD-1 induced
Protocol: as §1

[3] = system: DU145; experiment: Flow cytometry Annexin V-FITC/PI, DU145
Protocol: The remaining attached cells were harvested by trypsinization and combined with the detached cells and PBS. The cells were then pelleted at 4° C. (500×g) for 5 min, washed twice in PBS, and resuspended in 100 μl of 1× Annexin binding buffer ([…]) containing 5 μl of Annexin V-FITC and 5 μl of PI. The cells were incubated at RT for 15 min in the dark, then diluted with 400 μl of 1× Annexin binding buffer and analyzed by FACscan (Becton Dickinson, San Jose, Calif.). All reactions were performed three times.
PC3 and DU145 cells transfected with the hBD-1 expression system were grown in 60-mm dishes and induced for 12, 24, and 48 h with 10 μM Pon A. The cells were harvested and analyzed by flow cytometry as described in Example 1.

[4] = system: PC3; experiment: Flow cytometry Annexin V-FITC/PI, PC3
Protocol: The remaining attached cells were harvested by trypsinization and combined with the detached cells and PBS. The cells were then pelleted at 4° C. (500×g) for 5 min, washed twice in PBS, and resuspended in 100 μl of 1× Annexin binding buffer (0.1 M Hepes/NaOH at pH 7.4, 1.4 M NaCl, 25 mM CaCl2) containing 5 μl of Annexin V-FITC and 5 μl of PI. The cells were incubated at RT for 15 min in the dark, then diluted with 400 μl of 1× Annexin binding buffer and analyzed by FACscan (Becton Dickinson, San Jose, Calif.). All reactions were performed three times.

[5] = system: DU145; experiment: Pan-caspase detection (FAM-VAD-FMK, confocal), DU145; conditions: DEFB1 (hBD-1) induction 24 h
Protocol: (§2) Detection of caspase activity in the prostate cancer cell lines was performed using APO LOGIX™ Carboxyfluorescin Caspase detection kit (Cell Technology, Mountain View, Calif.). Active caspases were detected through the use of a FAM-VAD-FMK inhibitor that irreversibly binds to active caspases. […] Next, 10 μl of a 30× working dilution of carboxyfluorescein labeled peptide fluoromethyl ketone (FAM-VAD-FMK) was added to 300 μl of media and added to each 35 mm dish. Cells were then incubated for 1 hour at 37° C. under 5% CO2. Then, the medium was aspirated and the cells were washed twice with 2 ml of a 1× Working dilution Wash Buffer. Cells were viewed under differential interference contrast (DIC) or under laser excitation at 488 nm. The fluorescent signal was analyzed using a confocal microscope (Zeiss LSM 5 Pascal) and a 63×DIC oil lens with a Vario 2 RGB Laser Scanning Module.
(§3) Detection of caspase activity in the prostate cancer cell lines was performed s described in Example 1.
(§4) Detection of caspase activity in the prostate cancer cell lines was performeds described in Example 1.
(§5) Detection of caspase activity in the prostate cancer cell lines was performed as described in Example 1.

[6] = system: PC3; experiment: Pan-caspase detection (FAM-VAD-FMK, confocal), PC3; conditions: DEFB1 (hBD-1) induction 24 h
Protocol: as §2, §3, §4, §5

[7] = system: LNCaP; experiment: Pan-caspase detection (FAM-VAD-FMK, confocal), LNCaP; conditions: DEFB1 (hBD-1) induction 24 h
Protocol: as §2, §3, §4, §5

[8] = system: DU145; experiment: Membrane integrity AO/EtBr dual staining, DU145
Protocol: (§6) Acridine orange (AO)/ethidium bromide (EtBr) dual staining was performed to identify changes in cell membrane integrity, as well as apoptotic cells by staining the condensed chromatin. AO stains viable cells as well as early apoptotic cells, whereas EtBr stains late stage apoptotic cells that have lost membrane permeability. Briefly, cells were seeded into 2 chamber culture slides (BD Falcon, USA). […] In order to determine the effect of PAX2 inhibition on membrane integrity, separate culture slides containing DU145, PC3 and LNCaP were treated with PAX2 siRNA and incubated for 4 days. […] Fluorescence was viewed by a Zeiss LSM 5 Pascal Vario 2 Laser Scanning Confocal Microscope (Carl Zeiss Jena, Germany). […] Slides were analyzed under 40× magnification and digital images were stored as uncompressed TIFF files and exported into Photoshop CS software (Adobe Systems, San Jose, Calif.) for image processing and hard copy presentation. […]
(§7) Fluorescence was viewed by a Zeiss LSM 5 Pascal Vario 2 Laser Scanning Confocal Microscope (Carl Zeiss). […] Slides were analyzed under 40× magnification and digital images were stored as uncompressed TIFF files and exported into Photoshop CS software (Adobe Systems) for image processing and hard copy presentation. […]

[9] = system: PC3; experiment: Membrane integrity AO/EtBr dual staining, PC3
Protocol: as §6, §7

[10] = system: LNCaP; experiment: Membrane integrity AO/EtBr dual staining, LNCaP; conditions: hBD-1 induction 48 h
Protocol: as §6, §7

[11] = system: DU145; experiment: Phase contrast microscopy of cell growth, DU145; conditions: DEFB1 induction 48 h
Protocol: (§8) Cell morphology was analyzed by phase contrast microscopy. […] The following day plasmid-containing cells were induced for a period of 48 h with media containing 10 μM Ponasterone A, while control cells received fresh media. The cells were then viewed under an inverted Zeiss IM 35 microscope (Carl Zeiss, Germany). Phase contrast pictures of a field of cells were obtained using the SPOT Insight Mosaic 4.2 camera (Diagnostic Instruments, USA). Cells were examined by phase contrast microscopy under 32× magnification and digital images were stored as uncompressed TIFF files and exported into Photoshop CS software (Adobe Systems, San Jose, Calif.) for image processing and hard copy presentation.
(§9) The effect of PAX2 knock-down on cell growth was analyzed by phase contrast microscopy as described in Example 1.
(§10) The effect of PAX2 knockdown on cell number was analyzed by phase contrast microscopy as described in Example 1.

[12] = system: PC3; experiment: Phase contrast microscopy of cell growth, PC3; conditions: DEFB1 induction 48 h
Protocol: as §8, §9, §10

[13] = system: LNCaP; experiment: Phase contrast microscopy of cell growth, LNCaP; conditions: DEFB1 induction 48 h
Protocol: as §8, §9, §10

B1: DEFB1: human beta defensin-1 (SEQ ID NO:63), expressed in cells from Ponasterone A inducible pIND/DEFB1 construct (protein, listed as Homo sapiens)
chain: MRTSYLLLFTLCLLLSEMASGGNFLTGLGHRSDHYNCVSSGGQCLYSACPIFTKIQGTCYRGKAKCCK
[1]
  effect on cell viability: no significant effect
[2]
  hBD-1 cytotoxicity, PC3/AR+ compared with PC3: no difference
[3]; DEFB1 (hBD-1) induction 12 h
  number of apoptotic cells (annexin V/PI, lower and upper right quadrants): 12%
[3]; DEFB1 (hBD-1) induction 24 h
  number of apoptotic cells (annexin V/PI, lower and upper right quadrants): 34%
[3]; DEFB1 (hBD-1) induction 48 h
  number of apoptotic cells (annexin V/PI, lower and upper right quadrants): 59%
[4]; DEFB1 (hBD-1) induction 12 h
  number of apoptotic cells (annexin V/PI, lower and upper right quadrants): 10%
[4]; DEFB1 (hBD-1) induction 24 h
  number of apoptotic cells (annexin V/PI, lower and upper right quadrants): 20%
[5]
  caspase activity (green FAM-VAD-FMK staining): green staining
[6]
  caspase activity (green FAM-VAD-FMK staining): green staining
[7]
  caspase activity (green FAM-VAD-FMK staining): no green staining
[8]; DEFB1 (hBD-1) induction 24 h
  membrane integrity (AO/EtBr staining): accumulation of EtBr in the cytoplasm
[8]; DEFB1 (hBD-1) induction 48 h
  membrane integrity (AO/EtBr staining): possessed condensed nuclei and appeared yellow
[9]; DEFB1 (hBD-1) induction 24 h
  membrane integrity (AO/EtBr staining): accumulation of EtBr in the cytoplasm
[9]; DEFB1 (hBD-1) induction 48 h
  membrane integrity (AO/EtBr staining): possessed condensed nuclei and appeared yellow
[10]
  membrane integrity (AO/EtBr staining): no observable alterations to membrane integrity
[11]
  cell number: significant reduction in cell number
[12]
  cell number: significant reduction in cell number
[13]
  cell proliferation: no effect on cell proliferation
